Experiment [1] addresses 2-CysPrx C54S variant, non-tagged (Arabidopsis thaliana). Nature of the experiment: SEC.
Experiment [2] deals with 2-CysPrx C176S variant, non-tagged (Arabidopsis thaliana). In words: SEC.
For experiment [3] the target is unchanged. Nature of the experiment: ITC.
Experiment [4] addresses 2-CysPrx C-terminally truncated variant ΔC (–20 aa), non-tagged (Arabidopsis thaliana). Nature of the experiment: SEC.
For experiment [5], the target named is 2-CysPrx F84R variant, non-tagged (Arabidopsis thaliana). In words: SEC.
Experiment [6] has the same target. Nature of the experiment: SEC. This is another data set of the same source.
Experiment [7] has as its target 2-Cysteine peroxiredoxin A (At2-CysPrx) wild type, non-tagged (Arabidopsis thaliana). Nature of the experiment: SEC.
Experiment [8] has the same target. Nature of the experiment: ITC.
For experiment [9] the target is unchanged. Nature of the experiment: SEC. This is another data set of the same source.

Where two headings read alike, the source gives them in different places.

For “2-CysPrx C54S variant, non-tagged (enzyme)”, the stoichiometry N in experiment [1] was 10.

Substance “2-CysPrx C176S variant, non-tagged (enzyme)” registered a stoichiometry N in experiment [2] of 10. In experiment [3], the CTC (critical transition concentration, oligomer to dimers) was found to be 0.63 µM and the dH (dissociation enthalpy ΔHm) is 1610 kcal/mol.

As to “2-CysPrx C-terminally truncated variant ΔC (–20 aa), non-tagged (enzyme)”, the stoichiometry N in [4] is 2.

As to “2-CysPrx F84R variant, non-tagged (enzyme)”, the stoichiometry N in [5] and in experiment [6] was 2 throughout.

The substance “2-Cysteine peroxiredoxin A (At2-CysPrx) wild type, non-tagged (enzyme)” gave a stoichiometry N in experiment [7] of 2. Moreover, in experiment [8], the CTC (critical transition concentration, oligomer to dimers) was found to be 3.73 µM and the dH (dissociation enthalpy ΔHm) is 72 kcal/mol. Moreover, in [9], the stoichiometry N stood at 10.

(Values after PMC3733160.)
